Reference: the supplement of paper PMC10567573

B1: SMG5 (parent)
chain: TRKLSPGKKRCKDIKRLLVNFMYL

Variants of: B1
Experiment: protein stability index of a GFP-peptide fusion (GPS, HEK-293T) (PSI 1-6); higher = more stable
Conditions: c terminus: a fixed tail appended
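Note: lentivirally expressed fusions sorted by FACS into six bins by GFP to DsRed ratio, PSI derived from sequencing read proportions per bin multiplied by bin number.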

Variant | protein stability index
TRKLSPGKKRCKDIKRLLVNFMKL | 2.93
TRKLSPGKKRCKDIKRLLVNFMSL | 3.81
TRKLSPGKKRCKDIKRLLVNFMFL | 1.64
TRKLSPGKKRCKDIKRLLVNFMDL | 2.01
TRKLSPGKKRCKDIKRLLVNFMWL | 2.16
TRKLSPGKKRCKDIKRLLVNFMHL | 2.35
TRKLSPGKKRCKDIKRLLVNFMTL | 2.18
TRKLSPGKKRCKDIKRLLVNFMVL | 4.04
TRKLSPGKKRCKDIKRLLVNFMIL | 3.31
TRKLSPGKKRCKDIKRLLVNFMAL | 2.85
TRKLSPGKKRCKDIKRLLVNFMML | 2.94
TRKLSPGKKRCKDIKRLLVNFMRL | 2.05
TRKLSPGKKRCKDIKRLLVNFMPL | 1.81
TRKLSPGKKRCKDIKRLLVNSMYL | 2.88
TRKLSPGKKRCKDIKRLLVNGMYL | 1.63
TRKLSPGKKRCKDIKRLLVNHMYL | 1.49
TRKLSPGKKRCKDIKRLLVNNMYL | 1.97
TRKLSPGKKRCKDIKRLLVNDMYL | 2.37
TRKLSPGKKRCKDIKRLLVNWMYL | 1.91
TRKLSPGKKRCKDIKRLLVNAMYL | 1.76
TRKLSPGKKRCKDIKRLLVNTMYL | 1.99
TRKLSPGKKRCKDIKRLLVNIMYL | 3.19
TRKLSPGKKRCKDIKRLLVNKMYL | 2.12
TRKLSPGKKRCKDIKRLLVNYMYL | 1.76

Variant | protein stability index
TRKLSPGKKRCKDIKRLLVNEMYL | 1.75
TRKLSPGKKRCKDIKRLLVNCMYL | 1.21
TRKLSPGKKRCKDIKRLLVNRMYL | 1.88
TRKLSPGKKRCKDIKRLLVNPMYL | 1.6
TRKLSPGKKRCKDIKRLLVNQMYL | 1.71
TRKLSPGKKRCEDIKRLLVNFMYL | 4.79
TRKLSPGKKRCSDIKRLLVNFMYL | 2.06
TRKLSPGKKRCADIKRLLVNFMYL | 3.77
TRKLSPGKKRCRDIKRLLVNFMYL | 2.47
TRKLSPGKKRCWDIKRLLVNFMYL | 3.15
TRKLSPGKKRCDDIKRLLVNFMYL | 1.41
TRKLSPGKKRCPDIKRLLVNFMYL | 2.41
TRKLSPGKKRCFDIKRLLVNFMYL | 2.73
TRKLSPGKKRCCDIKRLLVNFMYL | 3.37
TRKLSPGKKRCMDIKRLLVNFMYL | 1.74
TRKLSPGKKRCYDIKRLLVNFMYL | 2.96
TRKLSPGKKRCNDIKRLLVNFMYL | 2.14
TRKLSPGKKRCQDIKRLLVNFMYL | 2.46
TRKLSPGKKRCTDIKRLLVNFMYL | 2.96
TRKLSPGKKRCGDIKRLLVNFMYL | 2.95
TRKLSPGKKRCLDIKRLLVNFMYL | 3.13
TRKLSPGKKRCVDIKRLLVNFMYL | 2.02
TRKLSPGKKRCKIIKRLLVNFMYL | 3.25
TRKLSPGKKRCKKIKRLLVNFMYL | 2.07

Variant | protein stability index
TRKLSPGKKRCKTIKRLLVNFMYL | 3.66
TRKLSPGKKRCKCIKRLLVNFMYL | 1.84
TRKLSPGKKRCKRIKRLLVNFMYL | 1.71
TRKLSPGKKRCKMIKRLLVNFMYL | 2.54
TRKLSPGKKRCKAIKRLLVNFMYL | 2.75
TRKLSPGKKRCKLIKRLLVNFMYL | 2.93
TRKLSPGKKRCKVIKRLLVNFMYL | 3.74
TRKLSPGKKRCKPIKRLLVNFMYL | 2.62
TRKLSPGKKRCKSIKRLLVNFMYL | 2.42
TRKLSPGKKRCKYIKRLLVNFMYL | 1.79
TRKLSPGKKRCKQIKRLLVNFMYL | 3.52
TRKLSPGKKRCKNIKRLLVNFMYL | 1.5
TRKLSPGKKRCKDIKRLGVNFMYL | 2.35
TRKLSPGKKRCKDIKRLCVNFMYL | 1.52
TRKLSPGKKRCKDIKRLVVNFMYL | 2.52
TRKLSPGKKRCKDIKRLMVNFMYL | 3.27
TRKLSPGKKRCKDIKRLDVNFMYL | 1.76
TRKLSPGKKRCKDIKRLRVNFMYL | 1.68
TRKLSPGKKRCKDIKRLQVNFMYL | 1.95
TRKLSPGKKRCKDIKRLHVNFMYL | 1.6
TRKLSPGKKRCKDIKRLKVNFMYL | 1.54
TRKLSPGKKRCKDIKRLAVNFMYL | 1.41
TRKLSPGKKRCKDIKRLYVNFMYL | 2.5
TRKLSPGKKRCKDIKRLPVNFMYL | 2.48

Variant | protein stability index
TRKLSPGKKRCKDIKRLFVNFMYL | 2.21
TRKLSPGKKRCKDIKRLNVNFMYL | 1.55
TRKLSPGKKRCKDIKRLTVNFMYL | 1.65
TRKLSPGKKRCKDIKRLEVNFMYL | 2.16
TRKLSPGKKRCKDIKRLSVNFMYL | 1.88
TRKLSPGKKRCKDIKRFLVNFMYL | 3.34
TRKLSPGKKRCKDIKRPLVNFMYL | 1.5
TRKLSPGKKRCKDIKRTLVNFMYL | 1.9
TRKLSPGKKRCKDIKRSLVNFMYL | 2.56
TRKLSPGKKRCKDIKRHLVNFMYL | 1.3
TRKLSPGKKRCKDIKRVLVNFMYL | 1
TRKLSPGKKRCKDIKRKLVNFMYL | 2.64
TRKLSPGKKRCKDIKRGLVNFMYL | 3.06
TRKLSPGKKRCKDIKRYLVNFMYL | 2.65
TRKLSPGKKRCKDIKRDLVNFMYL | 2.24
TRKLSPGKKRCKDIKRRLVNFMYL | 1.84
TRKLSPGKKRCKDIKRMLVNFMYL | 2.12
TRKLSPGKKRCKDIKRALVNFMYL | 1.77
TRKLSPGKKRCKDIKRELVNFMYL | 1.55
TRKLSPGKKRCKDIKRQLVNFMYL | 1.5
TRKLSPGKKRCKDNKRLLVNFMYL | 1.45
TRKLSPGKKRCKDHKRLLVNFMYL | 2.23
TRKLSPGKKRCKDFKRLLVNFMYL | 2.36
TRKLSPGKKRCKDTKRLLVNFMYL | 2.05

Variant | protein stability index
TRKLSPGKKRCKDRKRLLVNFMYL | 2.19
TRKLSPGKKRCKDSKRLLVNFMYL | 2.53
TRKLSPGKKRCKDCKRLLVNFMYL | 3.55
TRKLSPGKKRCKDMKRLLVNFMYL | 2.34
TRKLSPGKKRCKDWKRLLVNFMYL | 2.49
TRKLSPGKKRCKDLKRLLVNFMYL | 2.27
TRKLSPGKKRCKDVKRLLVNFMYL | 2.2
TRKLSPGKKRCKDGKRLLVNFMYL | 1.18
TRKLSPGKKRCKDEKRLLVNFMYL | 1.32
TRKLSPGKKRCKDPKRLLVNFMYL | 3.95
TRKLSPGKKRCKDKKRLLVNFMYL | 1.19
TRKLSPGKKRCKDQKRLLVNFMYL | 1.5
TRKLSPGKKRCKDDKRLLVNFMYL | 1.56
TRKLSPGKKRCKDAKRLLVNFMYL | 2.13
TRKLSPGKKRCKDIKPLLVNFMYL | 2.24
TRKLSPGKKRCKDIKGLLVNFMYL | 1.71
TRKLSPGKKRCKDIKTLLVNFMYL | 2.9
TRKLSPGKKRCKDIKALLVNFMYL | 2.73
TRKLSPGKKRCKDIKILLVNFMYL | 3.39
TRKLSPGKKRCKDIKELLVNFMYL | 2.42
TRKLSPGKKRCKDIKMLLVNFMYL | 4.38
TRKLSPGKKRCKDIKCLLVNFMYL | 2.27
TRKLSPGKKRCKDIKLLLVNFMYL | 1.66
TRKLSPGKKRCKDIKSLLVNFMYL | 1.36

Variant | protein stability index
TRKLSPGKKRCKDIKQLLVNFMYL | 1.27
TRKLSPGKKRCKDIKKLLVNFMYL | 2.01
TRKLSPGKKRCKDIKNLLVNFMYL | 2.58
TRKLSPGKKRCKDIKWLLVNFMYL | 3.81
TRKLSPGKKRCKDIKDLLVNFMYL | 1.6
TRKLSPGKKRCKDIKRLLVNFPYL | 2.39
TRKLSPGKKRCKDIKRLLVNFCYL | 1.75
TRKLSPGKKRCKDIKRLLVNFSYL | 1.39
TRKLSPGKKRCKDIKRLLVNFNYL | 1.95
TRKLSPGKKRCKDIKRLLVNFGYL | 2.04
TRKLSPGKKRCKDIKRLLVNFVYL | 2.33
TRKLSPGKKRCKDIKRLLVNFQYL | 1.34
TRKLSPGKKRCKDIKRLLVNFFYL | 2.29
TRKLSPGKKRCKDIKRLLVNFRYL | 2.4
TRKLSPGKKRCKDIKRLLVNFDYL | 2.34
TRKLSPGKKRCKDIKRLLVNFEYL | 2.45
TRKLSPGKKRCKDIKRLLVNFHYL | 1.65
TRKLSPGKKRCKDIKRLLVNFYYL | 2.96
TRKLSPGKKRCKDIKRLLVNFTYL | 2.11
TRKLSPGKKRCKDIKRLLVNFKYL | 1.86
TRKLSPGKKRCKDIKRLLVNFMYA | 2.34
TRKLSPGKKRCKDIKRLLVNFMYE | 1.96
TRKLSPGKKRCKDIKRLLVNFMYD | 1.2
TRKLSPGKKRCKDIKRLLVNFMYC | 1.39

Variant | protein stability index
TRKLSPGKKRCKDIWRLLVNFMYL | 2.09
TRKLSPGKKRCKDIVRLLVNFMYL | 4.58
TRKLSPGKKRCKDIARLLVNFMYL | 3.83
TRKLSPGKKRCKDIDRLLVNFMYL | 1.3
TRKLSPGKKRCKDIGRLLVNFMYL | 1.85
TRKLSPGKKRCKDIERLLVNFMYL | 3.46
TRKLSPGKKRCKDILRLLVNFMYL | 2.08
TRKLSPGKKRCKDIQRLLVNFMYL | 1.64
TRKLSPGKKRCKDIMRLLVNFMYL | 2.66
TRKLSPGKKRCKDIPRLLVNFMYL | 2.23
TRKLSPGKKRCKDITRLLVNFMYL | 3.37
TRKLSPGKKRCKDINRLLVNFMYL | 3.35
TRKLSPGKKRCKDIKRLLSNFMYL | 2.12
TRKLSPGKKRCKDIKRLLINFMYL | 1.66
TRKLSPGKKRCKDIKRLLHNFMYL | 2.72
TRKLSPGKKRCKDIKRLLLNFMYL | 3.43
TRKLSPGKKRCKDIKRLLNNFMYL | 2.21
TRKLSPGKKRCKDIKRLLTNFMYL | 1.84
TRKLSPGKKRCKDIKRLLGNFMYL | 2.1
TRKLSPGKKRCKDIKRLLDNFMYL | 2.34
TRKLSPGKKRCKDIKRLLCNFMYL | 2.31
TRKLSPGKKRCKDIKRLLQNFMYL | 2.26
TRKLSPGKKRCKDIKRLLENFMYL | 1.68
TRKLSPGKKRCKDIKRLLYNFMYL | 4.05

Variant | protein stability index
TRKLSPGKKRCKDIKRLLMNFMYL | 2.59
TRKLSPGKKRCKDIKRLLPNFMYL | 2.62
TRKLSPGKKRCKDIKRLLVWFMYL | 1.09
TRKLSPGKKRCKDIKRLLVHFMYL | 3.2
TRKLSPGKKRCKDIKRLLVKFMYL | 2.12
TRKLSPGKKRCKDIKRLLVFFMYL | 4.01
TRKLSPGKKRCKDIKRLLVSFMYL | 3.78
TRKLSPGKKRCKDIKRLLVDFMYL | 3.56
TRKLSPGKKRCKDIKRLLVQFMYL | 3.52
TRKLSPGKKRCKDIKRLLVIFMYL | 3.42
TRKLSPGKKRCKDIKRLLVEFMYL | 3.09
TRKLSPGKKRCKDIKRLLVYFMYL | 2.56
TRKLSPGKKRCKDIKRLLVPFMYL | 3.07
TRKLSPGKKRCKDIKRLLVVFMYL | 2.79
TRKLSPGKKRQKDIKRLLVNFMYL | 1.39
TRKLSPGKKRWKDIKRLLVNFMYL | 3.27
TRKLSPGKKRTKDIKRLLVNFMYL | 1.59
TRKLSPGKKRSKDIKRLLVNFMYL | 1.4
TRKLSPGKKRYKDIKRLLVNFMYL | 1.91
TRKLSPGKKRVKDIKRLLVNFMYL | 1.4
